These results are taken from patent publication US20090068174A1, “THERAPEUTIC ALKALINE PROTEASE COMPOSITIONS AND USE IN FACILITATING THE TRANSPORT OF AGENTS ACROSS THE GASTROINTESTINAL MUCOSAL LINING” (Kansas University Medical Center Research Institute, Inc., priority 2007, published 2009).

For this assay, the target named is T1, mouse recombinant TNF-α (Mus musculus, UniProt P06804).
T1 sequence (P06804 80-235 limits assumed): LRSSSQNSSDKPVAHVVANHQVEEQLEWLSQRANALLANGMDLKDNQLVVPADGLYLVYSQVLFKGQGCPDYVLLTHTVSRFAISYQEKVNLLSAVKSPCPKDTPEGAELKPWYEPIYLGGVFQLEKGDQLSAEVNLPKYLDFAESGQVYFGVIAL
As to the kind of experiment: Bioactivity of protease-treated mouse TNF-α in the C2C12 cell bioassay (nitrite). It counts as cell-based. The conditions noted are these: C2C12 cells, NO (nitrite) production. On the procedure: Effects of three purified A. oryzae proteases on the bioactivity of mouse TNF-α (A) protease powder prepared according to Example 1 (preparation); (B) alkaline protease; (C) 26 kDa protease; and (D) deuterolysin. 50 ng quantities of TNF-α were incubated at 37° C. for 24 hours with the indicated quantities of the protease powder prepared according to Example 1 or one of the three purified proteases. The reactions were then stopped by addition of FBS and samples were added to C2C12 cells that had been costimulated with mouse IFN-γ. Twenty-four hours later, nitrite was measured in culture fluids.
The protease powder prepared according to Example 1 inactivates mouse recombinant TNF-α. 50 ng of the cytokine was treated for 24 hours with either 0 (□); 5 (∘); or 10 ng ([…]) of either Pseudomonas elastase (A) or protease powder prepared according to Example 1 (B). Then the residual bioactivity of the cytokine was measured by its ability to co-activate mouse C2C12 myoblast cells in the presence of excess IFN-γ for the production of NO (nitrite).
The protease powder prepared according to Example 1 inactivates mouse recombinant TNF-α by limited proteolysis. […]

With “Pseudomonas elastase: Pseudomonas protease used as a positive control [reference compound]”, the “Effect on bioactivity of mouse TNF-α” value is given as “led to a loss of its biological activity”.
